{"source": "the RNAGym collection of RNA variant scans (doi:10.1073/pnas.2313332121)", "parents": {"B1": {"name": "TPR t1 (parent)", "chain": "GACCAAUCUGCCCUCAGAGCUCGAGAACAUCUUCGGAUGCAGAGGAGGCAGGCUUCGGUGGCGCGAUAGCGCCAACGUCCUCAACCUCCAAUGCAUCCCACCACAUGAUGAUGCCUGAAGAGCCUUGGUUUUUUG"}}, "data": [{"variants_of": "B1", "assay": "polymerase ribozyme fitness, log enrichment relative to wild type (log ratio); higher = more active; in vitro selection for triplet polymerase activity", "summary_of_the_method": "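A single round of triplicate in vitro selection, including frozen incubation at −7 °C, was applied to PCR-built, transcribed mutant libraries of each subunit of a heterodimeric triplet polymerase ribozyme. Illumina sequencing of input and output libraries retained genotypes with ≥10 input reads and ≥1 read per output. Fitness is the base-2 logarithm of genotype enrichment divided by wild-type enrichment, from inverse-variance-weighted replicate averages.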", "values": [{"variant": "GACCAAUCUGCCCUCAGAGGUCGAGAACAUCUUCGGAUGUAUAGGAGGCAGGCUUAGGUGGCGCGAUAGCGCCAACGUCCUCAACCUCCAAUGCAUCCCACCACAUGAUGAUGCCUGAAGAGCCUUGGUUUUUUG", "note": "[C20G C40U G42U C56A]", "polymerase ribozyme fitness (log ratio)": -4.45}, {"variant": "GACCAAUCUGCCCUCAGAGCUCGAGAACAUCUUCGGAUGCCGAGGAGGCAGGCUUCGGUGGCGCGAUAGCGCCAACGUCCUCAACCUCCAAAGCAUCCCACCACAUGAUGAUGCCUGAAGAGCCUUGGUUUUUUG", "note": "[A41C U92A]", "polymerase ribozyme fitness (log ratio)": -2.21}, {"variant": "GACCACUCUGCCCUCAGAGCUCGAGAACAUCUUCGGAUGCAGAGGAGGCUGGCUUCGAUCGCGCGAUAGUGCCAACGUCCUCAACCUCCAAUGCAUCCCACCACAUGAUGAUGCCUGAAGAGCCUUGGUUUUUUG", "note": "[A6C A50U G58A G60C C70U]", "polymerase ribozyme fitness (log ratio)": -3.42}, {"variant": "GACCAAUCUGCCCUCAGAGCUCGAGACCAUCUUCGGAUGCAGAGGAGGCAGGCUUCGGUGGCGCGAUAGCGCCAACGCCCUCAACCUCCAAUGCAUCCCACCACAUGAUGAUGCCUGAAGAGCCUUGGUUUUUUG", "note": "[A27C U78C]", "polymerase ribozyme fitness (log ratio)": -3.31}, {"variant": "GACCAAUCUGCCCUCAGAGCUCGAGAACAUCUUCGGAUGCAGAGGAGGCAGGCUUCGGUGGCGCGAUAGCGCCAACGUCCUCAACCUACAAUGCAUCACACCACAUGAUGAUGCCUGAAGAGCGUUGGUUUUUUG", "note": "[C88A C98A C124G]", "polymerase ribozyme fitness (log ratio)": -3.46}, {"variant": "GACCAAUCUGCCCUCAGAGCUCGAGAACAUCUUCGGAUGCAGAGGAGGCAGGCUUCGGUGGCGCGAUAGCGCCAACGUCCUCAACCUCCAAUGCAUCCCAACACAUGAUGAUGCCUGAAGUGCCUUGGUUUUUUG", "note": "[C101A A121U]", "polymerase ribozyme fitness (log ratio)": -0.684}, {"variant": "GACCAAUCUGCCCUCAGAGCUCGAGAACAUCUUCGGAUGCAGAGGAGGCAGGCUUCGGUGGCGCGAUAGCGCCAACGUGCUCAACCUCCAAUGCAUCCCACCACAUGAUGAUGCCUGAAGAGGCUUGGUUUUUUG", "note": "[C79G C123G]", "polymerase ribozyme fitness (log ratio)": 0.221}, {"variant": "GACCACUCUGCCCUCAGAGCUCGAGAACAUCUUCGGAUGCAGAGGAGGCAGGCUUCGGUGGCGCGAUAGCGCCAACGUCCUCAACCUUCAAUGCAUCCCACCACAUGAUGAUGCCUGAAGAGCCUUGGUUUUUUG", "note": "[A6C C88U]", "polymerase ribozyme fitness (log ratio)": -0.228}, {"variant": "GACCAAUCUGCCUUCAGAGCUCAAGGACAUCUUCGGAUGCAGAGGAGGCAGGCUUCGGUGACGCGAUAGCGCCAACGUUCUCAACCUCCAAUGCAUCCCACCACACGAUGAUGCCUGAAGAGCCUUGGUUUUUUG", "note": "[C13U G23A A26G G61A C79U U106C]", "polymerase ribozyme fitness (log ratio)": -4.2}, {"variant": "GACCAAUCUGCCCUCAGAGCUCGAGAACAUCUUCGGAUGCAGAGGAGGCAGGCUUCGGUGGCGCGAUAGCGCCAACGUCCUCAUCCUCCAAUGCAUCCCACCACAUGAUGAUGCCUGAAGAGCCUUGGUUUUUUU", "note": "[A84U G135U]", "polymerase ribozyme fitness (log ratio)": -1.03}, {"variant": "GACCAAUCUGCCCUCAGAGCUCGAGAACAUCUUCGGAUGCAGAGGAGGCAGGCUUCGGUGGCCCGAUAGCGCCAACGUCCUCAACCACCAAUGCAUCCCACCACAUGAUGAUGCCUGAAGAGCCUUGGUUUUUUG", "note": "[G63C U87A]", "polymerase ribozyme fitness (log ratio)": -1.59}, {"variant": "GACCAAUCUGCCCUCAGAGCUCGAGAACAUCUUCGGAUGCAGAGGAGGCAGGCUUCGGUGGCGCGAUAGCGCCAACGUCCUCAACCUCCAAUGCAUCCCACCACAUGAUGAUGCCUGAAGAGCCUUGGUUUUUUA", "note": "[G135A]", "polymerase ribozyme fitness (log ratio)": -0.639}, {"variant": "GACCAAUCUGCCCUCAGAGCUCGAGAACAUCUUCGGAUGCAGAGGAGGCAGGCUUCGGUGGCGCGAUAGCGCCAACGCCCUCAACGUCCAAUGCAUCCCACCACAUGAUGAUGCCUGAAGAGCCUUGGUUUUUUG", "note": "[U78C C86G]", "polymerase ribozyme fitness (log ratio)": -0.656}, {"variant": "GACCAAUCUGUCCUCAGAGCUCGAGAACAUCUUCGGAUGCAGAGCAGGCAGGCUUCAGUGUCGCGAUAGCGCCAACGUCCUCAACCUCCAAUGCAUCCCACCACAUGAUGAUGCCUGAAGAGCCUUGGUUUCUUG", "note": "[C11U G45C G57A G61U U132C]", "polymerase ribozyme fitness (log ratio)": -3.81}, {"variant": "GACCAAACUGCUCUCAGAGCUCGAGAACAUCUUCGGAUGCAGAGGAGGCAGGCUUCGGCGGCGCGAUAGCGCCAACGUCCUCAACCUCCAAUGCAUCCCACCACAUGAUGAUGCCUGAAGAGCCUUGGUUUUUUG", "note": "[U7A C12U U59C]", "polymerase ribozyme fitness (log ratio)": 0.392}, {"variant": "GACCAAUAUGCCCUCAGAGCUCGAGAACAUCUUCGGAUGCAGAGGAGGCAGGCUUCGGUGGCGCGAUAGCGCCAACGUCCUCAACCUCCAAUGCAUCCCACCACAUGAUGAUGCCUGAAGAGCCUUGGCUUUUUG", "note": "[C8A U129C]", "polymerase ribozyme fitness (log ratio)": -1.05}, {"variant": "GACCAAUCUGCCCUCAGAGCUCGAGAACAUCUUCGGAUGCAGUGGAGGCAGGCUUCGGUGGCGCGAUAGCGCCAACGGCCUCAAUCUCCAAUACAUCCCACCACAUGAUGAUGCCUGAAGAGCCUUGGUUUUUUG", "note": "[A43U U78G C85U G93A]", "polymerase ribozyme fitness (log ratio)": -3.01}, {"variant": "GACCAAUCUGCCCUCAGAGCUCGAGAACAUCUUCGGAUGCAGAGGAGGCACGCUUCGGUGGCGCGAUAGCGCCAACGUCGUCAACCUCCAAUGCAUCCCACCACAUGAUGAUGCCUGAAGAGCCUUGGUUUUUUG", "note": "[G51C C80G]", "polymerase ribozyme fitness (log ratio)": -1.85}, {"variant": "GACCAAUCUGCCCUCAGAGCUCGAGAACAUCUUCGGAUGCAGAGGAGGCAGGCUUCGGUGGCGCGAUAGCGCCAACGUCCUCUACCUCCAAUGCAUCCCCCCACAUGAUGAUGUCUGAAGAGCCUUGGUUUUUUG", "note": "[A83U A100C C114U]", "polymerase ribozyme fitness (log ratio)": -3.1}, {"variant": "GACCAAUCUGCCCUCAGAGCUCGAGAACAUCUUUGGAUGCAGAGGAGGCAGACUUCGGUGGCGCGAUAGCUCCAACGUCCUCAACCUCCAAUGCAUCCCACCACAUGAUGAUGCCUGAAGAGCCUUGGUUUUUUG", "note": "[C34U G52A G71U]", "polymerase ribozyme fitness (log ratio)": -4.6}, {"variant": "GACCAAUCUGCCCUCAGAGCUCGAGAACAUCUUCGGAUGCCGAGGAGGCAGGCUUCGGUGGCGCGAUAGCGCCAACGUCUUCAACCUCCAAUGCAUCCCACCACAUGAUGAUGCCUGAAGAGCCUUGGUUUUUUG", "note": "[A41C C80U]", "polymerase ribozyme fitness (log ratio)": -1.79}]}]}
